T1: Gad B (Escherichia coli, UniProt P69910)
T1 construct: gene gadB; full length (1401 bp), pET-30a(+) His tag, expressed in E. coli BL21(DE3), Ni-NTA purified; about 53 kDa on SDS-PAGE; homo-hexamer
T1 sequence (P69910 1-466): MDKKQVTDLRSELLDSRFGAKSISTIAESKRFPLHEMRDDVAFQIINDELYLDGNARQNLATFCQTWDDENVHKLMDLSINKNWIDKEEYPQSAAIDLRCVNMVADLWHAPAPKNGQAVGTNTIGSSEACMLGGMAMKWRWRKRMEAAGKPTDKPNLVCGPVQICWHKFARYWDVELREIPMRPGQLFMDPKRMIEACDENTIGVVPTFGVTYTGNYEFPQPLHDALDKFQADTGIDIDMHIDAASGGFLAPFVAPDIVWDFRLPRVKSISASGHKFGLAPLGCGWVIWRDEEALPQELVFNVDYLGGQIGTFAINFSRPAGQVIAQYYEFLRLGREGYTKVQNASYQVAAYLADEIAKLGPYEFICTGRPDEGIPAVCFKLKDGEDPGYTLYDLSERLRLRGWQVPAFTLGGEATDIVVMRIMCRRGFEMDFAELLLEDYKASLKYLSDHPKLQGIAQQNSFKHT

B1: Gad B (Escherichia coli K-12) (protein)
chain: T1 sequence (P69910 1-466)
notes: full length (1401 bp), pET-30a(+) His tag, expressed in E. coli BL21(DE3), Ni-NTA purified; about 53 kDa on SDS-PAGE; homo-hexamer

Key:
Gad B = target: T1, Gad B; assay: GABA formation at varied PLP concentration (HPLC); assay type: biochemical; conditions: coenzyme added to L-glutamate reaction; no constant
N[C@@H](CCC(=O)O)C(=O)O = tested on: T2, N[C@@H](CCC(=O)O)C(=O)O; assay: HPLC of GABA formed; Lineweaver-Burk plot; assay type: biochemical, Escherichia coli; conditions: substrate buffer with 0.05 mM PLP, phosphate buffer, 30 min, pH and temperature of the kinetics not given (optimum pH 4.3, 37 °C)
T2 construct: full length (1401 bp), pET-30a(+) His tag, expressed in E. coli BL21(DE3), Ni-NTA purified; about 53 kDa on SDS-PAGE; homo-hexamer
Text: (§1) HPLC of GABA formed; Lineweaver-Burk plot on Gad B

[1] = substrate: N[C@@H](CCC(=O)O)C(=O)O; assay: HPLC of GABA formed; Lineweaver-Burk plot; assay type: biochemical, Escherichia coli; conditions: substrate buffer with 0.05 mM PLP, phosphate buffer, 30 min, pH and temperature of the kinetics not given (optimum pH 4.3, 37 °C)
Text: as §1

Molecule	GABA formation at varied PLP concentration (HPLC) (Gad B)	Km (N[C@@H](CCC(=O)O)C(=O)O) [mM]	Vmax (N[C@@H](CCC(=O)O)C(=O)O) [µmol/min/mg]	Km [1] [mM]	Vmax [1] [µmol/min/mg]
Cc1ncc(COP(=O)(O)O)c(C=O)c1O [PLP]	enzyme activity of wild‐type Gad B and Gad B‐T62S mutants was highest when using the coenzyme PLP				
Gad B (Escherichia coli K-12; Q309A)		7.2 ± 3.8	87.3		
Gad B (Escherichia coli K-12; T62S)		7.3 ± 2.5	76.1		
B1				11.3 ± 2.1	32.1

Source: PMC10071571, “Site‐directed mutagenesis improves the practical application of L‐glutamic acid decarboxylase in Escherichia coli” (Engineering in Life Sciences, 2023)
